From US20250270341A1 (Alector, published 2025) come the findings set out here.

In general, Kd refers to the free concentration of one partner at which half of the binding sites on the other are occupied at equilibrium, for simple one-to-one binding. The low end stands for tighter binding, the high end for weaker binding.

Substitutions are numbered along the chain they refer to.

In one assay the target is T1, Cyno CD98hc ECD Avi-His (cynomolgus macaque, UniProt P08195 105-529 (human entry)).
T1 construct: biotinylated on the Avi tag where captured on streptavidin; also called Cyno CD98-AVI-His; Cyno CD98hc-AVI-His
T1 chain: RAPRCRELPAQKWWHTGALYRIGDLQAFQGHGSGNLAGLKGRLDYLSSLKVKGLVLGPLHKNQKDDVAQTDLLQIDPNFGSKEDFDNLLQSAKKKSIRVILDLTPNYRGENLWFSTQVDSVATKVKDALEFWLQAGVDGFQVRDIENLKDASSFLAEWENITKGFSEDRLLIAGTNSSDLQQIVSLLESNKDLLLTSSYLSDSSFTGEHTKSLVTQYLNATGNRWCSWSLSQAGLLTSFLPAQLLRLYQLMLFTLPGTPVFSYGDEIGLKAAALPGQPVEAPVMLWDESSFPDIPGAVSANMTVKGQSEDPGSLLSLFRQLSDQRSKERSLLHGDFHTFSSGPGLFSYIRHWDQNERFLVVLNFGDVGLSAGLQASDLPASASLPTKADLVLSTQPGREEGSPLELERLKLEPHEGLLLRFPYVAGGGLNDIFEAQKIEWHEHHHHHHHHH
As to the kind of experiment: SPR, Biacore T200, anti-kappa capture. On the procedure: (§1) Binding kinetics of 2+1 anti-CD98hc bispecific antibodies to recombinant human and cynomolgus CD98hc ECD Avi-His were evaluated using a Biacore T200 instrument (Global Life Sciences Solutions USA LLC, Marlborough, MA). The 2+1 anti-CD98hc bispecific antibodies were prepared by diluting to 50 μg/mL in running buffer HBS-EP+ (Teknova) with 0.5 mg/mL BSA (MP Biomedicals) and captured by a goat anti-human kappa polyclonal antibody (Southern Biotech) surface that was prepared according to the instrument manufacturer's recommendations. Two independent experiments were performed as follows, resulting in an N of between one and […] determinations for each antibody. Estimates of affinity were generated by injecting each analyte over captured antibody on Flowcell 2, 3, or 4. CD98hc ECD Avi-His analytes were diluted with running buffer, in a series of five, three-fold serial dilutions starting from 600 nM. Analytes were injected without regeneration, from lowest to highest concentration, for 5 minutes each, and dissociation was followed for 15 minutes. After each analyte injection series, antibodies were regenerated with 10 mM glycine pH 2.0 buffer (Cytiva). Data were processed and analyzed using Biacore T200 BiaEvaluation software (Cytiva).
(§2) The equilibrium dissociation constants (KD) were calculated from the fitted association and dissociation rate constants (k-on and k-off) for 2+1 anti-CD98hc bispecific antibodies of the present disclosure binding to human and cynomolgus CD98hc ECD Avi-His. For measurements with N>1, means and standard deviation were calculated and measurements for all samples were combined and graphed using GraphPad Prism.
For orientation: In SPR one partner is held on a chip, and binding of the other changes the refractive index at the surface.

The next assay deals with T2, huCD98hc ECD Avi-His (human, UniProt P08195 105-529).
T2 construct: biotinylated on the Avi tag where captured on streptavidin; also called Human CD98-AVI-His; Human CD98hc-AVI-His
T2 sequence: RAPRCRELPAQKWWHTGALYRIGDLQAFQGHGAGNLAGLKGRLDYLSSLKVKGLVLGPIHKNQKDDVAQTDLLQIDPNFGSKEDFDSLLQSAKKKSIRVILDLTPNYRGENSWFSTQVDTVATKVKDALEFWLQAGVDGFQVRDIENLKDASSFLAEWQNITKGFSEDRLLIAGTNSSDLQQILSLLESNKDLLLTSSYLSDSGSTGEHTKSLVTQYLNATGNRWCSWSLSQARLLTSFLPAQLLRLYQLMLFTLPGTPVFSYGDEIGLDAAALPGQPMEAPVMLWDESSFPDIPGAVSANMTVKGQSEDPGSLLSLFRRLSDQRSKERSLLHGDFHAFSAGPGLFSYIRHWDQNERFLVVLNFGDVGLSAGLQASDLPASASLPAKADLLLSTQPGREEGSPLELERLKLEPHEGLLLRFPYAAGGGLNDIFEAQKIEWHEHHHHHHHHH
As to the kind of experiment: SPR, Biacore T200, anti-kappa capture. As to the method:
as §1, §2

Assay [1] concerns the target T3, Full length mouse CD98hc on CHO cells (mouse, UniProt P10852 1-526).
T3 construct: CHO cells stably overexpressing it; also called CHO-mouse CD98hc; CHO-mCD98hc
T3 sequence: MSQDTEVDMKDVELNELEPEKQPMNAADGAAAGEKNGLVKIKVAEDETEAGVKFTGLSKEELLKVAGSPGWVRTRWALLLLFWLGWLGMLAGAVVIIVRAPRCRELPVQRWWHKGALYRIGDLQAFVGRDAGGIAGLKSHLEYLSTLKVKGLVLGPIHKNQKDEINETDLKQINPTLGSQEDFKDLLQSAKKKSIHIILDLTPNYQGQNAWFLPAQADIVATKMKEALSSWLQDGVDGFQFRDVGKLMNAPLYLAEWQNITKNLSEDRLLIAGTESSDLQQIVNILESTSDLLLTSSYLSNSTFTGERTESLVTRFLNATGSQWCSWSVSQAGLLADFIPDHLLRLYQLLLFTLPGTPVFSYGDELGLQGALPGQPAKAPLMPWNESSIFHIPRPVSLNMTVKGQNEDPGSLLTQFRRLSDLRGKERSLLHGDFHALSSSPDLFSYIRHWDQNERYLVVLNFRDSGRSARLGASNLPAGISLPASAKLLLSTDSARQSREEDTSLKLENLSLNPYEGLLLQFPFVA
The assay is described as follows: FACS, hybridoma supernatant. From the text: The IgG positive hybridoma supernatants (898 in total) were initially screened for their ability to differentially bind CHO cells overexpressing human or mouse CD98hc cells compared to CHO parental cells by FACS. Overexpressing cells were harvested, washed, and labeled with various concentrations and combinations of CellTrace cell proliferation dyes CFSE and Violet (ThermoFisher, Cat #C34554 and Cat #34557, respectively) to create uniquely barcoded cell populations. Barcoded cells (5×10⁴ of each cell population) were aliquoted into 96-well U-bottom plates and incubated with 50 μl of hybridoma cell culture supernatant or 1 μg/ml of commercially available purified mouse anti-human CD98hc monoclonal antibody (Sigma Aldrich, Cat #SAB 4700503) and rat anti-mouse CD98hc antibody (Bio-Rad Laboratories, Hercules, CA, Cat #MCA2684) on ice for 30 minutes. […] Following this secondary antibody incubation, the cells were again washed twice with ice-cold FACS buffer and resuspended in a final volume of 50 μl of FACS buffer containing 0.25 μl/well propidium iodide (BD Biosciences, Cat #556463). Binding intensity on cells was analyzed using the FACS Canto system (BD Biosciences), with sorting gates drawn to exclude dead (i.e., propidium iodide-positive) cells. For each barcoded cell population, the ratio of APC Mean Fluorescence Intensity (MFI) divided by secondary antibody MFI was calculated for each anti-CD98hc hybridoma supernatant tested and reported in Table 5.
(In flow cytometry, cells or beads pass a laser one at a time.)

For assay [2], the target named is T4, Full length human CD98hc on CHO cells (human).
T4 construct: CHO cells stably overexpressing it; also called CHO-human CD98hc; CHO-huCD98hc
T4 chain: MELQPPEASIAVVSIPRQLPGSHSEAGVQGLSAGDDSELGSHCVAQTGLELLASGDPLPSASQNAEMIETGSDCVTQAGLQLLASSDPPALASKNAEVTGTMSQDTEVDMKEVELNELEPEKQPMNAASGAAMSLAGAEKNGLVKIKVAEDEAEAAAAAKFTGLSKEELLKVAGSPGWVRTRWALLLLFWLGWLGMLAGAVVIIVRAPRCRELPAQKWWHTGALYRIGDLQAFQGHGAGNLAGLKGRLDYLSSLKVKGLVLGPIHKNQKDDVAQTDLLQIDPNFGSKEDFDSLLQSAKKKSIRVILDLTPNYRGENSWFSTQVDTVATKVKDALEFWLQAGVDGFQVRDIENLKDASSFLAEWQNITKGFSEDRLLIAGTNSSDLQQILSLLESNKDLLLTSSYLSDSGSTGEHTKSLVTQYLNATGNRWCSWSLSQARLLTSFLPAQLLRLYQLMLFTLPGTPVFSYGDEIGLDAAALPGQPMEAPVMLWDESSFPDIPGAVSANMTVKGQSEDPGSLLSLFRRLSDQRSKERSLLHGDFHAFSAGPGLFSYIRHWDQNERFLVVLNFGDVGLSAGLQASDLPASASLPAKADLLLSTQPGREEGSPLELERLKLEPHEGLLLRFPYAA
The assay is described as follows: FACS, hybridoma supernatant.

The target in assay [3] is T3, Full length mouse CD98hc on CHO cells. The assay is described as follows: FACS, hybridoma supernatant. The source holds these as a separate data set.
Assay [4] addresses T5, human CD98hc endogenously expressed on HCMEC/D3 cells (human).
T5 construct: human brain endothelial cell line
T5 chain: T4 chain
The assay is described as follows: FACS, hybridoma supernatant.

The target of assay [5] is T6, Human TfR-AVI-His (control) (human, UniProt P02786 89-760).
T6 construct: control protein; also called Avi-His-tagged human TfR; human transferrin receptor
The assay is described as follows: ELISA, hybridoma supernatant. On the procedure: (§3) Briefly, 96-well polystyrene plates were coated with 5 μg/ml of streptavidin (Thermo Fisher, Cat #PI21125) in coating buffer (0.05M carbonate buffer, pH 9.6, Sigma, Cat #C3041) overnight at 4° C. Coated plates were then blocked with ELISA diluent (PBS+0.5% BSA+0.05% Tween20) for one hour. Blocking buffer was removed and human, cyno, or mouse Avi-His-tagged CD98hc and Avi-His-tagged human TfR polypeptides were added at 1 μg/ml in ELISA diluent and captured for 1 hour at room temperature. After washing three times with 300 μl of PBST (PBS+0.05% Tween20, Thermo 28352), the hybridoma cell culture supernatants or 1 μg/ml of commercially available purified mouse anti-human CD98hc monoclonal antibody (Sigma Aldrich, Cat #SAB 4700503) and rat anti-mouse CD98hc antibody (Bio-Rad Laboratories, Hercules, CA, Cat #MCA2684) were added (50 μl/well) to each well. After 30 minutes of incubation at room temperature, the plates were washed three times with 300 μl of PBST. […] After a final set of washes (3×300 μl in PBST), 50 μl/well of BioFx TMB substrate (Surmodics, Eden Praire, MN, Cat #TMBW-1000-01) was added to the wells. The reaction was then quenched after 5-10 mins with 50 μl/well of 2N sulfuric acid. The plates were read for absorbance at 450 nm on a SpectraMax M5 (Molecular Devices, Sunnyvale, CA) using SoftMax Pro software.

For a further assay, the target named is T7, muCD98hc ECD Avi-His (mouse, UniProt P10852 100-526).
T7 construct: biotinylated on the Avi tag where captured on streptavidin; also called Mouse CD98-AVI-His; Mouse CD98hc-AVI-His
T7 sequence: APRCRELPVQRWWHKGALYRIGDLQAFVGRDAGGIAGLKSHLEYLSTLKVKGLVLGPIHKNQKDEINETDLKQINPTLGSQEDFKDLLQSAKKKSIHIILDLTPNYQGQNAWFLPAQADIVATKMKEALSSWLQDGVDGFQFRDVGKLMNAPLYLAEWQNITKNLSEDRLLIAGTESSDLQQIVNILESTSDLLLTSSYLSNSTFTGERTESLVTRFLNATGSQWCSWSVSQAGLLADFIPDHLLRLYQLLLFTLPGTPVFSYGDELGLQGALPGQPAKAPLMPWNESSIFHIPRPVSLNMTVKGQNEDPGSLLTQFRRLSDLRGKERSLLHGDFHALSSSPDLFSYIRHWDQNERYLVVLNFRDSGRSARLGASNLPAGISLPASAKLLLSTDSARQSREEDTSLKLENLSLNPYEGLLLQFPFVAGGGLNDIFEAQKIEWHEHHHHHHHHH
As to the kind of experiment: ELISA, hybridoma supernatant. On the procedure: as §3
Background: In an ELISA, binding on a coated surface is turned into a signal by an enzyme label.

T6 sequence (P02786 89-760 limits assumed): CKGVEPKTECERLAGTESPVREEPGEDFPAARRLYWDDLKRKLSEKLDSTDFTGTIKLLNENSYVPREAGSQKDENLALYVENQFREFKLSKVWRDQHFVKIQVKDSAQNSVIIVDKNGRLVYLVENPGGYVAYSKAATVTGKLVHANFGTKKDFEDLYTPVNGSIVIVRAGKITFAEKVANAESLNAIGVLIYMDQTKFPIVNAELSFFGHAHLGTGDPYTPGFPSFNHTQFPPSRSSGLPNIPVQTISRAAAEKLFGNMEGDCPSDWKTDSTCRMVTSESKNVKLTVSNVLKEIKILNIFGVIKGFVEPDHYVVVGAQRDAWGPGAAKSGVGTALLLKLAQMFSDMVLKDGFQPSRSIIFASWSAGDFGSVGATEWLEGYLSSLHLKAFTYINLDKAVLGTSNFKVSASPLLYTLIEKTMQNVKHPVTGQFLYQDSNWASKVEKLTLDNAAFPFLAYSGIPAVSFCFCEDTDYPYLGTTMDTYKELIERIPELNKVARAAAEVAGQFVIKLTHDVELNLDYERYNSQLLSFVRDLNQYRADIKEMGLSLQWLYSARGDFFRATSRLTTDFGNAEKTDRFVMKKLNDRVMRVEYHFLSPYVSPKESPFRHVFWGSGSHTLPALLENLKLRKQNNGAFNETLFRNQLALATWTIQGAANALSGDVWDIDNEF

B1: CD98hc.04.064.1a (humanized, 2+1 format) (bispecific antibody)
scFv: QVQLVQSGAEVKKPGASVKVSCKASGYTFTSYWMNWVRQAPGQGLEWMGIIDPSDSETHYAQKFQGRVTMTVDKSTSTVYMELSSLRSEDTAVYYCARASYGKGYFDYWGQGTLVTVSSGGSEGKSSGSGSESKSTGGSDIVMTQSPDSLAVSLGERATINCKSSQSLLNNINQKNYLAWYQQKPGQPPKLLIYFASTRESGVPDRFSGSGSGTDFTLTISSLQAEDVAVYYCQQHYSSPFTFGGGTKVEIK
notes: tested as 2+1 bispecific (scFv on an IgG)
B1: the Kd in the assay with Cyno CD98hc ECD Avi-His worked out at 0.88 µM; with huCD98hc ECD Avi-His it was 0.031 µM.

B2: CD98HC.04.054 (antibody, V domains shown)
VH: QVQLQQSAAELARPGASVKMSCETSGYTFTRYTMNWVKQRPGQGLDWIGYINPSSGYAEYNQKFRGKTTLTADKSSSTAYIQLNSLTSEDSAVYYCVRYDGNYVYWGQGTTLTVSS
VL: DIVMTQSQKFMSTSFGDRVDITCKASQNVGSAVAWYQQKPGQSPKLLIYSASNRYTGVPDRFTGSGSGTDFTLTINNMQSADLADYFCQQYNFYPLTFGAGTKLDLK
notes: hybridoma IgG
B2: the binding result in assay [1] is “no binding”. Further, the “MFI ratio over secondary antibody” value amounted to 52 in assay [2], 1.2 in assay [3] and 218 in assay [4].

B3: CD98HC.04.047 (antibody, V domains shown)
VH: EVQLQESGPSLVKPSQTLSLTCSVTGDSITSGYWNWIRKFPGNKLEYMGYISYSGSTYYNPSLKGRVSITRDTSKNQYYLQLNSVTTEDTATYYCQRHVIYDYTWFAYWGQGTLVTVSA
VL: QIVLTQSPAIMSASPGEKVTISCSASSSVGYMYWLQQKPGSSPKPWIYRTSILASGVPARFSGSGSGTSYSLTISSMEAEDAATYYCQQYQSYPLTFGAGTKLELK
notes: hybridoma IgG
Regarding B3, the binding result in assay [1] is “no binding”. The OD450 in assay [5] stood at 0.0949; with muCD98hc ECD Avi-His, 0.103. Moreover, the “MFI ratio over secondary antibody” value in assay [3] is 1.2.

B4: CD98HC.04.065 (antibody, V domains shown)
VH: B3 VH with S56R, G65S
VL: B3 VL with G30H, L35F, A59D
notes: hybridoma IgG
As to B4, the binding result in assay [1] was “no binding”. The OD450 in assay [5] is 0.1; with muCD98hc ECD Avi-His it was 0.0984. The “MFI ratio over secondary antibody” value in assay [3] was determined as 1.2.
